B1: E. coli AlaRS (Escherichia coli K-12; C666A/R561C) (protein)
chain: SKSTAEIRQAFLDFFHSKGHQVVASSSLVPHNDPTLLFTNAGMNQFKDVFLGLDKRNYSRATTSQRCVRAGGKHNDLENVGYTARHHTFFEMLGNFSFGDYFKHDAIQFAWELLTSEKWFALPKERLWVTVYESDDEAYEIWEKEVGIPRERIIRIGDNKGAPYASDNFWQMGDTGPCGPCTEIFYDHGDHIWGGPPGSPEEDGDRYIEIWNIVFMQFNRQADGTMEPLPKPSVDTGMGLERIAAVLQHVNSNYDIDLFRTLIQAVAKVTGATDLSNKSLRVIADHIRSCAFLIADGVMPSNENRGYVLRRIIRRAVRHGNMLGAKETFFYKLVGPLIDVMGSAGEDLKRQQAQVEQVLKTEEEQFARTLERGLALLDEELAKLSGDTLDGETAFRLYDTYGFPVDLTADVCRERNIKVDEAGFEAAMEEQRRRAREASGFGADYNAMIRVDSASEFKGYDHLELNGKVTALFVDGKAVDAINAGQEAVVVLDQTPFYAESGGQVGDKGELKGANFSFAVEDTQKYGQAIGHIGKLAAGSLKVGDAVQADVDEARRARICLNHSATHLMHAALRQVLGTHVSQKGSLVNDKVLRFDFSHNEAMKPEEIRAVEDLVNTQIRRNLPIETNIMDLEAAKAKGAMALFGEKYDERVRVLSMGDFSTELAGGTHASRTGDIGLFRIISESGTAAGVRRIEAVTGEGAIATVHADSDRLSEVAHLLKGDSNNLADKVRSVLERTRQLEKELQQLKEQAAAQESANLSSKAIDVNGVKLLVSELSGVEPKMLRTMVDDLKNQLGSTIIVLATVVEGKVSLIAGVSKDVTDRVKAGELIGMVAQQVGGKGGGRPDMAQAGGTDAAALPAALASVKGWVSAKLQ
B2: E. coli AlaRS (Escherichia coli K-12; C666A) (protein)
chain: SKSTAEIRQAFLDFFHSKGHQVVASSSLVPHNDPTLLFTNAGMNQFKDVFLGLDKRNYSRATTSQRCVRAGGKHNDLENVGYTARHHTFFEMLGNFSFGDYFKHDAIQFAWELLTSEKWFALPKERLWVTVYESDDEAYEIWEKEVGIPRERIIRIGDNKGAPYASDNFWQMGDTGPCGPCTEIFYDHGDHIWGGPPGSPEEDGDRYIEIWNIVFMQFNRQADGTMEPLPKPSVDTGMGLERIAAVLQHVNSNYDIDLFRTLIQAVAKVTGATDLSNKSLRVIADHIRSCAFLIADGVMPSNENRGYVLRRIIRRAVRHGNMLGAKETFFYKLVGPLIDVMGSAGEDLKRQQAQVEQVLKTEEEQFARTLERGLALLDEELAKLSGDTLDGETAFRLYDTYGFPVDLTADVCRERNIKVDEAGFEAAMEEQRRRAREASGFGADYNAMIRVDSASEFKGYDHLELNGKVTALFVDGKAVDAINAGQEAVVVLDQTPFYAESGGQVGDKGELKGANFSFAVEDTQKYGQAIGHIGKLAAGSLKVGDAVQADVDEARRARIRLNHSATHLMHAALRQVLGTHVSQKGSLVNDKVLRFDFSHNEAMKPEEIRAVEDLVNTQIRRNLPIETNIMDLEAAKAKGAMALFGEKYDERVRVLSMGDFSTELAGGTHASRTGDIGLFRIISESGTAAGVRRIEAVTGEGAIATVHADSDRLSEVAHLLKGDSNNLADKVRSVLERTRQLEKELQQLKEQAAAQESANLSSKAIDVNGVKLLVSELSGVEPKMLRTMVDDLKNQLGSTIIVLATVVEGKVSLIAGVSKDVTDRVKAGELIGMVAQQVGGKGGGRPDMAQAGGTDAAALPAALASVKGWVSAKLQ
B3: E. coli AlaRS (Escherichia coli K-12; C666A/R561S) (protein)
chain: SKSTAEIRQAFLDFFHSKGHQVVASSSLVPHNDPTLLFTNAGMNQFKDVFLGLDKRNYSRATTSQRCVRAGGKHNDLENVGYTARHHTFFEMLGNFSFGDYFKHDAIQFAWELLTSEKWFALPKERLWVTVYESDDEAYEIWEKEVGIPRERIIRIGDNKGAPYASDNFWQMGDTGPCGPCTEIFYDHGDHIWGGPPGSPEEDGDRYIEIWNIVFMQFNRQADGTMEPLPKPSVDTGMGLERIAAVLQHVNSNYDIDLFRTLIQAVAKVTGATDLSNKSLRVIADHIRSCAFLIADGVMPSNENRGYVLRRIIRRAVRHGNMLGAKETFFYKLVGPLIDVMGSAGEDLKRQQAQVEQVLKTEEEQFARTLERGLALLDEELAKLSGDTLDGETAFRLYDTYGFPVDLTADVCRERNIKVDEAGFEAAMEEQRRRAREASGFGADYNAMIRVDSASEFKGYDHLELNGKVTALFVDGKAVDAINAGQEAVVVLDQTPFYAESGGQVGDKGELKGANFSFAVEDTQKYGQAIGHIGKLAAGSLKVGDAVQADVDEARRARISLNHSATHLMHAALRQVLGTHVSQKGSLVNDKVLRFDFSHNEAMKPEEIRAVEDLVNTQIRRNLPIETNIMDLEAAKAKGAMALFGEKYDERVRVLSMGDFSTELAGGTHASRTGDIGLFRIISESGTAAGVRRIEAVTGEGAIATVHADSDRLSEVAHLLKGDSNNLADKVRSVLERTRQLEKELQQLKEQAAAQESANLSSKAIDVNGVKLLVSELSGVEPKMLRTMVDDLKNQLGSTIIVLATVVEGKVSLIAGVSKDVTDRVKAGELIGMVAQQVGGKGGGRPDMAQAGGTDAAALPAALASVKGWVSAKLQ
B4: E. coli AlaRS (Escherichia coli K-12; D551Y) (protein)
chain: SKSTAEIRQAFLDFFHSKGHQVVASSSLVPHNDPTLLFTNAGMNQFKDVFLGLDKRNYSRATTSQRCVRAGGKHNDLENVGYTARHHTFFEMLGNFSFGDYFKHDAIQFAWELLTSEKWFALPKERLWVTVYESDDEAYEIWEKEVGIPRERIIRIGDNKGAPYASDNFWQMGDTGPCGPCTEIFYDHGDHIWGGPPGSPEEDGDRYIEIWNIVFMQFNRQADGTMEPLPKPSVDTGMGLERIAAVLQHVNSNYDIDLFRTLIQAVAKVTGATDLSNKSLRVIADHIRSCAFLIADGVMPSNENRGYVLRRIIRRAVRHGNMLGAKETFFYKLVGPLIDVMGSAGEDLKRQQAQVEQVLKTEEEQFARTLERGLALLDEELAKLSGDTLDGETAFRLYDTYGFPVDLTADVCRERNIKVDEAGFEAAMEEQRRRAREASGFGADYNAMIRVDSASEFKGYDHLELNGKVTALFVDGKAVDAINAGQEAVVVLDQTPFYAESGGQVGDKGELKGANFSFAVEDTQKYGQAIGHIGKLAAGSLKVGDAVQAYVDEARRARIRLNHSATHLMHAALRQVLGTHVSQKGSLVNDKVLRFDFSHNEAMKPEEIRAVEDLVNTQIRRNLPIETNIMDLEAAKAKGAMALFGEKYDERVRVLSMGDFSTELCGGTHASRTGDIGLFRIISESGTAAGVRRIEAVTGEGAIATVHADSDRLSEVAHLLKGDSNNLADKVRSVLERTRQLEKELQQLKEQAAAQESANLSSKAIDVNGVKLLVSELSGVEPKMLRTMVDDLKNQLGSTIIVLATVVEGKVSLIAGVSKDVTDRVKAGELIGMVAQQVGGKGGGRPDMAQAGGTDAAALPAALASVKGWVSAKLQ
B5: E. coli AlaRS (Escherichia coli K-12; R561S) (protein)
chain: SKSTAEIRQAFLDFFHSKGHQVVASSSLVPHNDPTLLFTNAGMNQFKDVFLGLDKRNYSRATTSQRCVRAGGKHNDLENVGYTARHHTFFEMLGNFSFGDYFKHDAIQFAWELLTSEKWFALPKERLWVTVYESDDEAYEIWEKEVGIPRERIIRIGDNKGAPYASDNFWQMGDTGPCGPCTEIFYDHGDHIWGGPPGSPEEDGDRYIEIWNIVFMQFNRQADGTMEPLPKPSVDTGMGLERIAAVLQHVNSNYDIDLFRTLIQAVAKVTGATDLSNKSLRVIADHIRSCAFLIADGVMPSNENRGYVLRRIIRRAVRHGNMLGAKETFFYKLVGPLIDVMGSAGEDLKRQQAQVEQVLKTEEEQFARTLERGLALLDEELAKLSGDTLDGETAFRLYDTYGFPVDLTADVCRERNIKVDEAGFEAAMEEQRRRAREASGFGADYNAMIRVDSASEFKGYDHLELNGKVTALFVDGKAVDAINAGQEAVVVLDQTPFYAESGGQVGDKGELKGANFSFAVEDTQKYGQAIGHIGKLAAGSLKVGDAVQADVDEARRARISLNHSATHLMHAALRQVLGTHVSQKGSLVNDKVLRFDFSHNEAMKPEEIRAVEDLVNTQIRRNLPIETNIMDLEAAKAKGAMALFGEKYDERVRVLSMGDFSTELCGGTHASRTGDIGLFRIISESGTAAGVRRIEAVTGEGAIATVHADSDRLSEVAHLLKGDSNNLADKVRSVLERTRQLEKELQQLKEQAAAQESANLSSKAIDVNGVKLLVSELSGVEPKMLRTMVDDLKNQLGSTIIVLATVVEGKVSLIAGVSKDVTDRVKAGELIGMVAQQVGGKGGGRPDMAQAGGTDAAALPAALASVKGWVSAKLQ
B6: E. coli AlaRS (Escherichia coli K-12) (protein)
chain: SKSTAEIRQAFLDFFHSKGHQVVASSSLVPHNDPTLLFTNAGMNQFKDVFLGLDKRNYSRATTSQRCVRAGGKHNDLENVGYTARHHTFFEMLGNFSFGDYFKHDAIQFAWELLTSEKWFALPKERLWVTVYESDDEAYEIWEKEVGIPRERIIRIGDNKGAPYASDNFWQMGDTGPCGPCTEIFYDHGDHIWGGPPGSPEEDGDRYIEIWNIVFMQFNRQADGTMEPLPKPSVDTGMGLERIAAVLQHVNSNYDIDLFRTLIQAVAKVTGATDLSNKSLRVIADHIRSCAFLIADGVMPSNENRGYVLRRIIRRAVRHGNMLGAKETFFYKLVGPLIDVMGSAGEDLKRQQAQVEQVLKTEEEQFARTLERGLALLDEELAKLSGDTLDGETAFRLYDTYGFPVDLTADVCRERNIKVDEAGFEAAMEEQRRRAREASGFGADYNAMIRVDSASEFKGYDHLELNGKVTALFVDGKAVDAINAGQEAVVVLDQTPFYAESGGQVGDKGELKGANFSFAVEDTQKYGQAIGHIGKLAAGSLKVGDAVQADVDEARRARIRLNHSATHLMHAALRQVLGTHVSQKGSLVNDKVLRFDFSHNEAMKPEEIRAVEDLVNTQIRRNLPIETNIMDLEAAKAKGAMALFGEKYDERVRVLSMGDFSTELCGGTHASRTGDIGLFRIISESGTAAGVRRIEAVTGEGAIATVHADSDRLSEVAHLLKGDSNNLADKVRSVLERTRQLEKELQQLKEQAAAQESANLSSKAIDVNGVKLLVSELSGVEPKMLRTMVDDLKNQLGSTIIVLATVVEGKVSLIAGVSKDVTDRVKAGELIGMVAQQVGGKGGGRPDMAQAGGTDAAALPAALASVKGWVSAKLQ

substrate: C[C@H](N)C(=O)O; assay: purified protein; details: 2 mM ATP, 2 mM PPi, 10 mM MgCl2, 30 mM KCl, 2 mM NaF, pH 7.2, 37 °C, amino acid activation

Point of comparison: B3, Km 177 ± 37 µM. Against it:
- B1 — within error, 190 ± 30 µM
- B2 — within error, 263 ± 115 µM
- B4 — within error, 260 ± 76 µM
- B5 — within error, 180 ± 15 µM
- B6 — within error, 320 ± 150 µM

Point of comparison: B4, kcat 11.9 s⁻¹. Against it:
- B1 — within 1.5-fold, 13.7 s⁻¹
- B2 — within 1.5-fold, 16.8 s⁻¹
- B3 — within 1.5-fold, 13.2 s⁻¹
- B5 — 1.7-fold higher, 20.3 s⁻¹
- B6 — 1.7-fold higher, 20.8 s⁻¹

Point of comparison: B5, kcat/Km 112000 M⁻¹ s⁻¹. Against it:
- B1 — 1.6-fold lower, 71500 M⁻¹ s⁻¹
- B2 — 1.8-fold lower, 63800 M⁻¹ s⁻¹
- B3 — 1.5-fold lower, 74300 M⁻¹ s⁻¹
- B4 — 2.4-fold lower, 46000 M⁻¹ s⁻¹
- B6 — 1.7-fold lower, 65200 M⁻¹ s⁻¹

From publication PMC7603204
